The source of these data is patent US20200262917A1 (Daiichi Sankyo, published 2020).

In experiment [1] the target is T1, LAG-3_D3D4-His: 3rd and 4th extracellular immunoglobulin-like domains (263-450) of human LAG-3 with … (UniProt P18627 263-450).
T1 chain: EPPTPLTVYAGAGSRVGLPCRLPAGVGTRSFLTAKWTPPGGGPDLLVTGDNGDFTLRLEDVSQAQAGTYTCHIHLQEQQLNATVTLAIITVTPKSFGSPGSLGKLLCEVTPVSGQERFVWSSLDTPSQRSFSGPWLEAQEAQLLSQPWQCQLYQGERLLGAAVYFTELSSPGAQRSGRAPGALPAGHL
Briefly: SPR (Biacore T200).

The target in experiment [2] is T2, human LAG-3 (full length, expressed on cells) (human, UniProt P18627 23-525).
T2 construct: also called CD223; hLAG-3
T2 sequence: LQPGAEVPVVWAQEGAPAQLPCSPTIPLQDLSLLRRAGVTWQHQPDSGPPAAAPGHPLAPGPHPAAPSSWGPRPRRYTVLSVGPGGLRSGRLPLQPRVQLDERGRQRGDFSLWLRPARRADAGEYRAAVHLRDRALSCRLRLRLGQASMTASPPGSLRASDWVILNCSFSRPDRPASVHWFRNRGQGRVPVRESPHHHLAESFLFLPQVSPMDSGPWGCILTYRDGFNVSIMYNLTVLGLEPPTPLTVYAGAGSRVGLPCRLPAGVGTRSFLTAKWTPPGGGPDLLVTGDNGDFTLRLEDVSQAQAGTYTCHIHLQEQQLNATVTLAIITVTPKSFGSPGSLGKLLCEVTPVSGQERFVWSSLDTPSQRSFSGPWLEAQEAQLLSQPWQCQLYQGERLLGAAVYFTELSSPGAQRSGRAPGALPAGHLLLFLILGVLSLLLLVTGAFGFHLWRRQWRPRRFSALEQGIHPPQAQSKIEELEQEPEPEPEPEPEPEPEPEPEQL
Put plainly: flow cytometry on 293T-lacZ cells expressing human LAG-3. In general terms: Flow cytometry measures light scatter and fluorescence of single cells or particles in a stream.

B1: humanized anti-human LAG-3 antibody hLA212_H3/L2 (antibody, human IgG1, kappa, V domains shown)
VH: EVQLVESGGGLVQPGGSLRLSCAASGFTYRSYVMAWVRQAPGKGLEWVASISTGGGNTYYRDSVKGRFTISRDNAKNTLYLQMDSLRAEDTAVYYCAEDMSNSGYGLFDYWGQGTLVTVSS
VL: DIQMTQSPSSLSASVGDRVTITCKAGQNVDNNIAWYQQKPGQSPKLLIYYASNRNTGVPSRFSGSGYGTDFTLTISSLQPEDFATYYCQRISNSPYTFGQGTKVEIKR
notes: Human IgG1/kappa; not in a low fucose form; also called humanized hLA212_H3/L2
Take B1: in experiment [1], the affinity, expressed as Kd, was 62 pM. Moreover, the binding result in experiment [2] is “binds”.

B2: humanized anti-human LAG-3 antibody hLA212_H2/L5 (antibody, human IgG1, kappa, V domains shown)
VH: EVQLVESGGGLVQPGGSLRLSCAASGFTYRSYVMAWVRQAPGKGLEWVGSISTGGGNTYYRDSVKGRFTISRDNAKNTLYLQMNSLRAEDTAVYYCAEDMSNSGYGLFDYWGQGTLVTVSS
VL: NIQMTQSPSSMSISVGDRVTMTCKAGQNVDNNIAWYQKKPGQSPKLLIYYASNRNTGVPDRFSGGGYGTDFTLTISSVQPEDAAFYYCQRISNSPYTFGQGTKLELKR
notes: Human IgG1/kappa; also called humanized hLA212_H2/L5
As to B2, the equilibrium dissociation constant (Kd) (usually the constant that tells how readily two partners part at equilibrium) in experiment [1] came out at 120 pM. In addition, the binding result in experiment [2] is on record as “binds”.

B3: human chimeric anti-LAG-3 antibody cLA212 (antibody, human IgG1, V domains shown)
VH: EVQLVESGGGLVQPGRSLKLSCAASGFTYRSYVMAWVRQAPTRGLEWVASISTGGGNTYYRDSVKGRFTISRDNAKNTLYLQMDSLRSEDTATYYCAEDMSNSGYGLFDYWGQGVMVTVSS
VL: NIVMTQSPKSMSISVGDRVTMNCKAGQNVDNNIAWYQKKPGQSPKLLIYYASNRNTGVPDRFTGGGYGTDFTLTINSVQAEDAAFYYCQRISNSPYTFGAGTELELKR
notes: Human IgG1/kappa chimera; The C-terminal ends 470 and 234 are inferred from the humanized chains, which differ from cLA212 by substitutions only; also called rLA212 human chimeric antibody
For B3, the binding result in experiment [2] is recorded as “binds”.

B4: humanized anti-human LAG-3 antibody hLA212_H3/L5 (antibody, human IgG1, kappa, V domains shown)
VH: EVQLVESGGGLVQPGGSLRLSCAASGFTYRSYVMAWVRQAPGKGLEWVASISTGGGNTYYRDSVKGRFTISRDNAKNTLYLQMDSLRAEDTAVYYCAEDMSNSGYGLFDYWGQGTLVTVSS
VL: NIQMTQSPSSMSISVGDRVTMTCKAGQNVDNNIAWYQKKPGQSPKLLIYYASNRNTGVPDRFSGGGYGTDFTLTISSVQPEDAAFYYCQRISNSPYTFGQGTKLELKR
notes: Human IgG1/kappa; also called humanized hLA212_H3/L5
For B4, the dissociation constant Kd in experiment [1] came out at 100 pM. In experiment [2], the binding result was “binds”.

B5: humanized anti-human LAG-3 antibody hLA212_H3/L3 (antibody, human IgG1, kappa, V domains shown)
VH: EVQLVESGGGLVQPGGSLRLSCAASGFTYRSYVMAWVRQAPGKGLEWVASISTGGGNTYYRDSVKGRFTISRDNAKNTLYLQMDSLRAEDTAVYYCAEDMSNSGYGLFDYWGQGTLVTVSS
VL: NIQMTQSPSSLSASVGDRVTITCKAGQNVDNNIAWYQKKPGQSPKLLIYYASNRNTGVPDRFSGGGYGTDFTLTISSLQPEDFAFYYCQRISNSPYTFGQGTKVEIKR
notes: Human IgG1/kappa; also called humanized hLA212_H3/L3
Turning to B5, the affinity in experiment [1], expressed as Kd, was 100 pM. For the same molecule, the binding result in experiment [2] was “binds”.

B6: humanized anti-human LAG-3 antibody hLA212_H2/L3 (antibody, human IgG1, kappa, V domains shown)
VH: EVQLVESGGGLVQPGGSLRLSCAASGFTYRSYVMAWVRQAPGKGLEWVGSISTGGGNTYYRDSVKGRFTISRDNAKNTLYLQMNSLRAEDTAVYYCAEDMSNSGYGLFDYWGQGTLVTVSS
VL: NIQMTQSPSSLSASVGDRVTITCKAGQNVDNNIAWYQKKPGQSPKLLIYYASNRNTGVPDRFSGGGYGTDFTLTISSLQPEDFAFYYCQRISNSPYTFGQGTKVEIKR
notes: Human IgG1/kappa; also called humanized hLA212_H2/L3
In turn, B6 came in with a Kd in experiment [1] of 150 pM. In addition, the binding result in experiment [2] was “binds”.

B7: humanized anti-human LAG-3 antibody hLA212_H2/L2 (antibody, human IgG1, kappa, V domains shown)
VH: EVQLVESGGGLVQPGGSLRLSCAASGFTYRSYVMAWVRQAPGKGLEWVGSISTGGGNTYYRDSVKGRFTISRDNAKNTLYLQMNSLRAEDTAVYYCAEDMSNSGYGLFDYWGQGTLVTVSS
VL: DIQMTQSPSSLSASVGDRVTITCKAGQNVDNNIAWYQQKPGQSPKLLIYYASNRNTGVPSRFSGSGYGTDFTLTISSLQPEDFATYYCQRISNSPYTFGQGTKVEIKR
notes: Human IgG1/kappa; also called humanized hLA212_H2/L2
Turning to B7, binding in experiment [1] was characterised by a dissociation constant (Kd) of 120 pM. Besides, the binding result in experiment [2] is given as “binds”.

B8: humanized anti-human LAG-3 antibody hLA212_H3/L4 (antibody, human IgG1, kappa, V domains shown)
VH: EVQLVESGGGLVQPGGSLRLSCAASGFTYRSYVMAWVRQAPGKGLEWVASISTGGGNTYYRDSVKGRFTISRDNAKNTLYLQMDSLRAEDTAVYYCAEDMSNSGYGLFDYWGQGTLVTVSS
VL: DIQMTQSPSSMSISVGDRVTMTCKAGQNVDNNIAWYQKKPGQSPKLLIYYASNRNTGVPSRFSGSGSGTDFTLTISSVQPEDFATYYCQRISNSPYTFGQGTKLELKR
notes: Human IgG1/kappa; also called humanized hLA212_H3/L4
In experiment [1], B8 had a dissociation constant (Kd) of 76 pM. Besides, the binding result in experiment [2] is listed as “binds”.

B9: humanized anti-human LAG-3 antibody hLA212_H2/L1 (antibody, human IgG1, kappa, V domains shown)
VH: EVQLVESGGGLVQPGGSLRLSCAASGFTYRSYVMAWVRQAPGKGLEWVGSISTGGGNTYYRDSVKGRFTISRDNAKNTLYLQMNSLRAEDTAVYYCAEDMSNSGYGLFDYWGQGTLVTVSS
VL: DIQMTQSPSSLSASVGDRVTITCKAGQNVDNNIAWYQQKPGQAPKLLIYYASNRNTGVPSRFSGSGSGTDFTLTISSLQPEDFATYYCQRISNSPYTFGQGTKVEIKR
notes: Human IgG1/kappa; also called humanized hLA212_H2/L1
The molecule B9 returned a Kd in experiment [1] of 110 pM. Moreover, in experiment [2], the binding result is on record as “binds”.

B10: humanized anti-human LAG-3 antibody hLA212_H3/L1 (antibody, human IgG1, kappa, V domains shown)
VH: EVQLVESGGGLVQPGGSLRLSCAASGFTYRSYVMAWVRQAPGKGLEWVASISTGGGNTYYRDSVKGRFTISRDNAKNTLYLQMDSLRAEDTAVYYCAEDMSNSGYGLFDYWGQGTLVTVSS
VL: DIQMTQSPSSLSASVGDRVTITCKAGQNVDNNIAWYQQKPGQAPKLLIYYASNRNTGVPSRFSGSGSGTDFTLTISSLQPEDFATYYCQRISNSPYTFGQGTKVEIKR
notes: Human IgG1/kappa; also called humanized hLA212_H3/L1
B10 returned a Kd in experiment [1] of 92 pM. For the same molecule, the binding result in experiment [2] is listed as “binds”.

B11: humanized anti-human LAG-3 antibody hLA212_H2/L4 (antibody, human IgG1, kappa, V domains shown)
VH: EVQLVESGGGLVQPGGSLRLSCAASGFTYRSYVMAWVRQAPGKGLEWVGSISTGGGNTYYRDSVKGRFTISRDNAKNTLYLQMNSLRAEDTAVYYCAEDMSNSGYGLFDYWGQGTLVTVSS
VL: DIQMTQSPSSMSISVGDRVTMTCKAGQNVDNNIAWYQKKPGQSPKLLIYYASNRNTGVPSRFSGSGSGTDFTLTISSVQPEDFATYYCQRISNSPYTFGQGTKLELKR
notes: Human IgG1/kappa; also called humanized hLA212_H2/L4
As to B11, the Kd in experiment [1] turned out to be 96 pM. For the same molecule, the binding result in experiment [2] is given as “binds”.
